Data taken from patent US20210355187A1, “GLP-2 FUSION POLYPEPTIDES AND USES FOR TREATING AND PREVENTING GASTROINTESTINAL CONDITIONS” (SHIRE-NPS PHARMACEUTICALS, INC., priority 2018, published 2021).
Like-named read-outs stand apart in the source and are kept apart here.

What was measured:
[1] = cited from earlier work
[2] = SEC-MALS assay (protein stability analysis); format: physicochemical; details: for SEC-MALS HMW: high molecular weight fraction; for SEC-MALS Main Peak: main peak fraction; for SEC-MALS Tailing Peak: tailing peak fraction
Protocol: A SEC-MALS assay was performed to determine the primary state (main peak) and its molecular weight. The GLP-2 peptibody A has the amino acid sequence set forth in SEQ ID NO: 1. The GLP-2 peptibody B has the amino acid sequence set forth in SEQ ID NO: 4. The GLP-2 peptibody C has the amino acid sequence set forth in SEQ ID NO: 7. The GLP-2 peptibody D has the amino acid sequence set forth in SEQ ID NO: 10.

Compound	half-life ([1]; SBS patients) [h]	half-life ([1]; healthy patients)	SEC-MALS HMW [2] [% HMW]	SEC-MALS Main Peak [2] [% Main Peak]	SEC-MALS Tailing Peak [2] [% Tailing Peak]
CC[C@H](C)[C@H](NC(=O)[C@H](Cc1ccccc1)NC(=O)[C@H](CC(=O)O)NC(=O)[C@H](CCCNC(=N)N)NC(=O)[C@H](C)NC(=O)[C@H](C)NC(=O)[C@H](CC(C)C)NC(=O)[C@H](CC(N)=O)NC(=O)[C@H](CC(=O)O)NC(=O)[C@H](CC(C)C)NC(=O)[C@@H](NC(=O)[C@@H](NC(=O)[C@H](CC(N)=O)NC(=O)[C@H](CCSC)NC(=O)[C@H](CCC(=O)O)NC(=O)[C@H](CC(=O)O)NC(=O)[C@H](CO)NC(=O)[C@H](Cc1ccccc1)NC(=O)[C@H](CO)NC(=O)CNC(=O)[C@H](CC(=O)O)NC(=O)CNC(=O)[C@@H](N)Cc1c[nH]cn1)[C@@H](C)O)[C@@H](C)CC)C(=O)N[C@@H](CC(N)=O)C(=O)N[C@@H](Cc1c[nH]c2ccccc12)C(=O)N[C@@H](CC(C)C)C(=O)N[C@H](C(=O)N[C@@H](CCC(N)=O)C(=O)N[C@H](C(=O)N[C@@H](CCCCN)C(=O)N[C@H](C(=O)N[C@H](C(=O)N[C@@H](CC(=O)O)C(=O)O)[C@@H](C)O)[C@@H](C)CC)[C@@H](C)O)[C@@H](C)CC [Teduglutide]	~1.3	approximately 2 hours	–	–	–
GLP-2 peptibody B: GLP-2[A2G]-linker APAPAPAPAPAPAPAPAPAP-IgG1(LALA) Fc fusion having the amino acid sequence of SEQ ID NO: 4	–	–	1.2	80.7	18.1
GLP-2 peptibody C: GLP-2[A2G]-linker AEAAAKEAAAKEAAAKALEAEAAAKEAAAKEAAAKA-IgG1(LALA) Fc fusion having the amino acid sequence of SEQ ID NO: 7	–	–	–	82.6	17.4
GLP-2 peptibody D: GLP-2[A2G] with C-terminal arginine-linker GGGGSGGGGSGGGGS-IgG1(LALA) Fc fusion having the amino acid sequence of SEQ ID NO: 10	–	–	1.4	86.8	11.8
